Biological target: Mouse Pcdh15 EC1-2 wild-type (mouse, UniProt Q99PJ1-18 27-259)
Experiment: single-molecule force spectroscopy

B1: Mouse Cdh23 EC1-2 wild-type (domain or fragment, UniProt Q99PF4 24-228, looked up)
chain: QVNRLPFFTNHFFDTYLLISEDTPVGSSVTQLLARDMDNDPLVFGVSGEEASRFFAVEPDTGVVWLRQPLDRETKSEFTVEFSVSDHQGVITRKVNIQVGDVNDNAPTFHNQPYSVRIPENTPVGTPIFIVNATDPDLGAGGSVLYSFQPPSPFFAIDSARGIVTVIQELDYEVTQAYQLTVNATDQDKTRPLSTLANLAIIITD
In the case of B1, the koff is reported as 0.0045 s⁻¹.

Source: PMC6717114 (Biochemical Journal, 2019)
